# “And” between values parts separate entries of the source, which are not always exact repeats. Identical values can stand only once.
# B1: Cytochrome c oxidase subunit 2 wild type, P98052 (protein)
# chain: AYTLATHTAGVIPAGKLERVDPTTVRQEGPWADPAQAVVQTGPNQYTVYVLAFAFGYQPNPIEVPQGAEIVFKITSPDVIHGFHVEGTNINVEVLPGEVSTVRYTFKRPGEYRIICNQYCGLGHQNMFGTIVVKE
# Conditions: Thermus thermophilus, 20 °C, GdnHCl, CD, Sodium acetate 50 mM, reversible: Yes, whole UniProt chain shown
protein,measurement,setting,value
B1,unfolding free energy,pH 3.5,2.85 kcal/mol and 2.2 kcal/mol
same,unfolding free energy,pH 4,3.15 kcal/mol and 2.61 kcal/mol
same,unfolding free energy,pH 4.5,3.56 kcal/mol and 2.84 kcal/mol and 2.73 kcal/mol
same,unfolding free energy,pH 5,6.38 kcal/mol and 6.69 kcal/mol and 4.15 kcal/mol
same,unfolding free energy,pH 5.5,9.01 kcal/mol
same,unfolding free energy,pH 6,15.9 kcal/mol and 13.2 kcal/mol and 5.97 kcal/mol
same,unfolding free energy,pH 7,20.2 kcal/mol and 15.4 kcal/mol

# Reference: FireProtDB (doi:10.1529/biophysj.106.101162)
